Measured values published in US20050229275A1.
Values belong to the molecule of their own block, whether it stands above or below them.

Assays:
[1] = target: plant produced CO17-1A of Example 9; test: competition ELISA: free GA733 (1-100 nM) varied, constant plant CO17 (1/500 dilution; protein A purified and ammonium sulfate fractionated preparations alike), plates coated with GA733
murine mAbGA733 [2] = test: competition ELISA, free GA733 against coated GA733
murine mAbGA733 [3] = test: competition ELISA: free GA733 (1-100 nM) varied, constant murine mAbGA733 (0.063 nM), plates coated with GA733
[4] = target: colorectal cancer-associated antigen (Ag) GA733-2 (UniProt P16422); test: ELISA, leaf extract on plates coated with Ag GA733-2, anti-mouse IgG peroxidase (whole molecule)
[5] = target: colorectal cancer-associated antigen (Ag) GA733-2 (UniProt P16422); test: ELISA, N. benthamiana leaf extract on plates coated with Ag GA733-2, anti-mouse IgG peroxidase (whole molecule or Fc specific)

IC50 [1]: 6.3 nM | fold higher antigen concentration for 50% inhibition, against plant expressed CO17-1A (murine mAbGA733 [2]): 5 fold | IC50 (murine mAbGA733 [3]): 35 nM
Molecule: colorectal cancer-associated antigen (Ag) GA733-2 (from UniProt P16422 24-265)

fold OD490 nm over controls (NI, HC, LC) [4]: 2 to 3 fold
B1: plant-produced rAB CO17-1A expressed from AlMV vectors A3a17-1ALC and A3b17-1AHC in Rep plants (antibody, INN chains, looked up, V domains shown)
VH: QVQLQQSGAELVRPGTSVKVSCKASGYAFTNYLIEWVKQRPGQGLEWIGVINPGSGGTNYNEKFKGKATLTADKSSSTAYMQLSSLTSDDSAVYFCARDGPWFAYWGQGTLVTVSA
VL: NIVMTQSPKSMSMSVGERVTLTCKASENVVTYVSWYQQKPEQSPKLLIYGASNRYTGVPDRFTGSGSATDFTLTISSVQAEDLADYHCGQGYSYPYTFGGGTKLEIK
modifications: plant-produced

fold O.D.490 over controls (NI, HC, LC) [5]: 2 to 3 fold
B2: plant-produced rAb CO17-1A expressed from TMV vectors 30B-17HCK and 30B-17LC in Nicotiana benthamiana (antibody, INN chains, looked up, V domains shown, part only)
VH: QVQLQQSGAELVRPGTSVKVSCKASGYAFTNYLIEWVKQRPGQGLEWIGVINPGSGGTNYNEKFKGKATLTADKSSSTAYMQLSSLTSDDSAVYFCARDGPWFAYWGQGTLVTVSA
VL: NIVMTQSPKSMSMSVGERVTLTCKASENVVTYVSWYQQKPEQSPKLLIYGASNRYTGVPDRFTGSGSATDFTLTISSVQAEDLADYHCGQGYSYPYTFGGGTKLEIK
modifications: plant-produced, His tag
